Key:
Experiment in all cases: two-hybrid library CCNG1;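 also: natural log of median RNA to DNA barcode read ratio; higher means stronger binding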
4H3185-bA = biological target: T1, 4H3185-bA
T1 chain: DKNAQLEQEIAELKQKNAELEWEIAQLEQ

4H331-bA = biological target: T2, 4H331-bA
T2 chain: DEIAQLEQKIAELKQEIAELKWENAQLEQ

4H3354-bA = biological target: T3, 4H3354-bA
T3 chain: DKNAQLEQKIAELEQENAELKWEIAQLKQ

4H338-bA = biological target: T4, 4H338-bA
T4 chain: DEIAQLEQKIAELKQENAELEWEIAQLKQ

4H3427-bA = biological target: T5, 4H3427-bA
T5 chain: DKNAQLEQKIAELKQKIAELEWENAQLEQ

4H3782-bA = biological target: T6, 4H3782-bA
T6 chain: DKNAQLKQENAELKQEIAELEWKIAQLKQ

4H3843-bA = biological target: T7, 4H3843-bA
T7 chain: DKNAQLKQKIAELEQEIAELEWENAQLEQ

4H3855-bA = biological target: T8, 4H3855-bA
T8 chain: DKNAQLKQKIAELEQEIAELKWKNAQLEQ

4H4001-bA = biological target: T9, 4H4001-bA
T9 chain: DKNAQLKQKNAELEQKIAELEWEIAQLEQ

4H454-bA = biological target: T10, 4H454-bA
T10 chain: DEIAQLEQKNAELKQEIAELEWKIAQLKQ

4H568-bA = biological target: T11, 4H568-bA
T11 chain: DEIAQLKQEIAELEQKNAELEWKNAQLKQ

4H607-bA = biological target: T12, 4H607-bA
T12 chain: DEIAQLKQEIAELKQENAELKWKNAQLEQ

4H687-bA = biological target: T13, 4H687-bA
T13 chain: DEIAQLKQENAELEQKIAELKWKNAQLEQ

4H717-bA = biological target: T14, 4H717-bA
T14 chain: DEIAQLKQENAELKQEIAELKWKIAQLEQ

4H72-bA = biological target: T15, 4H72-bA
T15 chain: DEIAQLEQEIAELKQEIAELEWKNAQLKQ

4H754-bA = biological target: T16, 4H754-bA
T16 chain: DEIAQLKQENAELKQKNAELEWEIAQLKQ

4H797-bA = biological target: T17, 4H797-bA
T17 chain: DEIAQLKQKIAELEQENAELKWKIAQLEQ

4H883-bA = biological target: T18, 4H883-bA
T18 chain: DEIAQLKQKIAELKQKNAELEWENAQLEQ

4H908-bA = biological target: T19, 4H908-bA
T19 chain: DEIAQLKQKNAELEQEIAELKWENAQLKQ

4H918-bA = biological target: T20, 4H918-bA
T20 chain: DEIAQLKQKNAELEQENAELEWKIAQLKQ

4H953-bA = biological target: T21, 4H953-bA
T21 chain: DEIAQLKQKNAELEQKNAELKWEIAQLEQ

4H967-bA = biological target: T22, 4H967-bA
T22 chain: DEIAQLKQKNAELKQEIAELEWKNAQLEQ

P3A-bA = biological target: T23, P3A-bA
T23 chain: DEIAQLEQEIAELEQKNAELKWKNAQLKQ

P4A-bA = biological target: T24, P4A-bA
T24 chain: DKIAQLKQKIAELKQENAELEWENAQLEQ

P5A-bA = biological target: T25, P5A-bA
T25 chain: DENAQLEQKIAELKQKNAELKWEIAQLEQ

P6A-bA = biological target: T26, P6A-bA
T26 chain: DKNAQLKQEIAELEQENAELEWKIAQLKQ

P7A-bA = biological target: T27, P7A-bA
T27 chain: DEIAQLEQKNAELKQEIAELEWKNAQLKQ

P8A-bA = biological target: T28, P8A-bA
T28 chain: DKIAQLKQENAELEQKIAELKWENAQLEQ

P9A-bA = biological target: T29, P9A-bA
T29 chain: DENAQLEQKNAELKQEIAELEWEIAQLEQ

P4SHb = biological target: T30, P4SHb
T30 chain: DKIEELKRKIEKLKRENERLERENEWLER

P5SHb = biological target: T31, P5SHb
T31 chain: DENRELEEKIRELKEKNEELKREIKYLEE

P6SHb = biological target: T32, P6SHb
T32 chain: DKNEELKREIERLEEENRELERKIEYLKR

P7SHb = biological target: T33, P7SHb
T33 chain: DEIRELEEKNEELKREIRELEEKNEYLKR

P8SHb = biological target: T34, P8SHb
T34 chain: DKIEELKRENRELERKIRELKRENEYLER

P9SHb = biological target: T35, P9SHb
T35 chain: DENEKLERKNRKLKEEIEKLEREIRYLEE

4H1544-bA = biological target: T36, 4H1544-bA
T36 chain: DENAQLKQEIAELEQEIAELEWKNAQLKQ

4H1710-bA = biological target: T37, 4H1710-bA
T37 chain: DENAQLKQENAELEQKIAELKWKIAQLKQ

4H1899-bA = biological target: T38, 4H1899-bA
T38 chain: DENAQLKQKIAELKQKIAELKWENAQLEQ

4H1985-bA = biological target: T39, 4H1985-bA
T39 chain: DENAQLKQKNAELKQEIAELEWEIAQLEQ

4H3162-bA = biological target: T40, 4H3162-bA
T40 chain: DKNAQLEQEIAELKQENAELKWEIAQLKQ

4H3175-bA = biological target: T41, 4H3175-bA
T41 chain: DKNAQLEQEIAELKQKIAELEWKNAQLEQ

4H3277-bA = biological target: T42, 4H3277-bA
T42 chain: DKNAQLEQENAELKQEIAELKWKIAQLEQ

4H3298-bA = biological target: T43, 4H3298-bA
T43 chain: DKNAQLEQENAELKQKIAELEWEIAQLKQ

4H3462-bA = biological target: T44, 4H3462-bA
T44 chain: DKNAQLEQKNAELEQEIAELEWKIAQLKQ

4H3497-bA = biological target: T45, 4H3497-bA
T45 chain: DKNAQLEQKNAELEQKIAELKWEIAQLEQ

4H3613-bA = biological target: T46, 4H3613-bA
T46 chain: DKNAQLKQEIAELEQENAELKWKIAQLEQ

4H3628-bA = biological target: T47, 4H3628-bA
T47 chain: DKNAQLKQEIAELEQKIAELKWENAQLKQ

4H3817-bA = biological target: T48, 4H3817-bA
T48 chain: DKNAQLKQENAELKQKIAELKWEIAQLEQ

4H3858-bA = biological target: T49, 4H3858-bA
T49 chain: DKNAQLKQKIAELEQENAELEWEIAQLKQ

4H3926-bA = biological target: T50, 4H3926-bA
T50 chain: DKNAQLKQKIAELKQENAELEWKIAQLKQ

4H3974-bA = biological target: T51, 4H3974-bA
T51 chain: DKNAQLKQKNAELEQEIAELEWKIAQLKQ

4H570-bA = biological target: T52, 4H570-bA
T52 chain: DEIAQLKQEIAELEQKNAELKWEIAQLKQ

4H591-bA = biological target: T53, 4H591-bA
T53 chain: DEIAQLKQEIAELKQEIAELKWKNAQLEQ

4H626-bA = biological target: T54, 4H626-bA
T54 chain: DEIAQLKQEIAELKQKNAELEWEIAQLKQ

4H850-bA = biological target: T55, 4H850-bA
T55 chain: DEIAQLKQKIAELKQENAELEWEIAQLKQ

4H906-bA = biological target: T56, 4H906-bA
T56 chain: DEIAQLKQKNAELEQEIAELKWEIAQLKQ

**Q.** DKNAQLEQEIAELKQKNAELEWEIAQLEQ [4H3185-bA] was tested. Which interaction score (4H3185-bA) did it give?
**A.** -0.903

**Q.** What about the interaction score (4H331-bA) of the same binder?
**A.** -1.49

**Q.** What about the interaction score (4H3354-bA) of the same binder?
**A.** -1.03

**Q.** And the interaction score (4H338-bA)?
**A.** -1.39

**Q.** What about the interaction score (4H3427-bA) of the same binder?
**A.** -0.483

**Q.** And the interaction score (4H3782-bA)?
**A.** -1.06

**Q.** What about the interaction score (4H3843-bA) of the same binder?
**A.** -0.572

**Q.** And the interaction score (4H3855-bA)?
**A.** -0.974

**Q.** And the interaction score (4H4001-bA)?
**A.** -0.835

**Q.** And the interaction score (4H454-bA)?
**A.** -1.66

**Q.** And the interaction score (4H568-bA)?
**A.** -1.72

**Q.** What about the interaction score (4H607-bA) of the same binder?
**A.** -1.07

**Q.** What about the interaction score (4H687-bA) of the same binder?
**A.** -0.744

**Q.** And the interaction score (4H717-bA)?
**A.** -1.46

**Q.** And the interaction score (4H72-bA)?
**A.** -1.82

**Q.** And the interaction score (4H754-bA)?
**A.** -0.86

**Q.** What about the interaction score (4H797-bA) of the same binder?
**A.** -1.99

**Q.** And the interaction score (4H883-bA)?
**A.** -1.49

**Q.** And the interaction score (4H908-bA)?
**A.** -1.86

**Q.** And the interaction score (4H918-bA)?
**A.** -1.76

**Q.** What about the interaction score (4H953-bA) of the same binder?
**A.** -1.76

**Q.** What about the interaction score (4H967-bA) of the same binder?
**A.** -0.96

**Q.** What about the interaction score (P3A-bA) of the same binder?
**A.** -0.564

**Q.** With DKIAQLKQKNAELKQKNAELKWKIAQLKQ [P2A-bA] as the binder, how does the interaction score (P3A-bA) read?
**A.** -0.686

**Q.** And the interaction score (P4A-bA)?
**A.** 0.0163

**Q.** What about the interaction score (P5A-bA) of the same binder?
**A.** -0.638

**Q.** And the interaction score (P6A-bA)?
**A.** 0.426

**Q.** And the interaction score (P7A-bA)?
**A.** -0.916

**Q.** What about the interaction score (P8A-bA) of the same binder?
**A.** -0.64

**Q.** And the interaction score (P9A-bA)?
**A.** 0.702

**Q.** Which results are given for DKIEELKRKIEKLKRENERLERENEWLER [P4SHb]?
**A.** interaction score (P4SHb): -0.574; interaction score (P5SHb): -0.773; interaction score (P6SHb): 0.8; interaction score (P7SHb): -1.05; interaction score (P8SHb): -1.17; interaction score (P9SHb): 0.746

**Q.** How did the interaction score (4H1544-bA) turn out when DENAQLKQEIAELEQEIAELEWKNAQLKQ [4H1544-bA] was run?
**A.** 0.00288

**Q.** And the interaction score (4H1710-bA)?
**A.** 2.06

**Q.** What about the interaction score (4H1899-bA) of the same binder?
**A.** 1.52

**Q.** What about the interaction score (4H1985-bA) of the same binder?
**A.** 0.274

**Q.** And the interaction score (4H3162-bA)?
**A.** 0.788

**Q.** What about the interaction score (4H3175-bA) of the same binder?
**A.** -0.0402

**Q.** And the interaction score (4H3277-bA)?
**A.** 0.243

**Q.** And the interaction score (4H3298-bA)?
**A.** 0.792

**Q.** And the interaction score (4H3462-bA)?
**A.** 0.455

**Q.** And the interaction score (4H3497-bA)?
**A.** 0.215

**Q.** And the interaction score (4H3613-bA)?
**A.** 0.572

**Q.** What about the interaction score (4H3628-bA) of the same binder?
**A.** 0.77

**Q.** What about the interaction score (4H3817-bA) of the same binder?
**A.** 0.78

**Q.** And the interaction score (4H3858-bA)?
**A.** -0.357

**Q.** And the interaction score (4H3926-bA)?
**A.** 0.0381

**Q.** And the interaction score (4H3974-bA)?
**A.** 0.562

**Q.** What about the interaction score (4H570-bA) of the same binder?
**A.** -0.0902

**Q.** And the interaction score (4H591-bA)?
**A.** -0.632

**Q.** And the interaction score (4H626-bA)?
**A.** -0.46

**Q.** And the interaction score (4H850-bA)?
**A.** 0.322

**Q.** And the interaction score (4H906-bA)?
**A.** -0.806
